Reference: the supplement of paper PMC9732359
± gives the uncertainty stated by the source.

Assay: protein stability index of a GFP-peptide fusion (yeast GPS) (PSI 1-4); higher = more stable; sorted into four equal gates, so the index is relative within each strain
Conditions: san1∆
Method in brief: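 The protein stability index combines read frequencies across sorting gates, each weighted by its gate number and then summed. To obtain those frequencies, a pooled yeast library of GFP fusions to tiled 17-residue yeast protein peptides, on a plasmid also expressing Cherry, was grown to mid-log phase in leucine-free medium. The cells were sorted into four equal gates by GFP/Cherry ratio before plasmid amplification by PCR and Illumina sequencing.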

In the case of VRATFRNNLPAKTFGAS [RPL33A], the protein stability index is reported as 3.2 ± 0.11.

Same assay, conditions: ubr1∆

In order of falling protein stability index:
1. VIGLDSEHDKKRLSAAL [YML103C/NUP188]  3.67 ± 0.14
2. VLRRLLAKYRDAGKIDK [RPL19A]  3.61 ± 0.093
3. VITLAEYEKRNHGGSLG [SRP68]  3.55 ± 0.14
4. VKNVKNSDLEFNTFWDE [ARP9]  3.46 ± 0.084
5. VPVTKLGRLVKAGKITT [RPS2]  3.45 ± 0.078
6. VGKVMNKNQETAISVAK [RPT6]  3.4 ± 0.11
7. VLQDLRLGSKKLVEIIW [YJL039C/NUP192]  3.39 ± 0.14
8. VHPGANYLLKRNEDARR [RPO31]  3.35 ± 0.038
9. VLLVLPFTDRSVVRGNT [COB]  3.34 ± 0.15
10. VNAIKNEVKEWAVTLDT [DSN1]  3.33 ± 0.12
11. VRATFRNNLPAKTFGAS [RPL33A]  3.31 ± 0.098
12. VKLKQQKVNAVDSTFQK [SMC3]  3.29 ± 0.062
13. VKLYGREGSSARTIKAT [RPB2]  3.29 ± 0.19
14. VDSKTKEPVDDKDVKAK [FAS2]  3.28 ± 0.16
15. VLLTFLQDELHKVSSQS [YCS4]  3.27 ± 0.13
16. VLQKVIEWAEHHRDSNF [SKP1]  3.25 ± 0.062
17. VNGSTTAGVGSTPNFGG [SIN4]  3.25 ± 0.077
18. VDSGEERNEQEREIMND [SWI3]  3.24 ± 0.11
19. VNDKYKTCAEVIGGNSL [SMC3]  3.21 ± 0.15
20. VNQDSTYKYFEVILVDP [RPL15A]  3.19 ± 0.057
21. VQFGLNEETFTVPELEI [ARP9]  3.19 ± 0.082
22. VKRLLFTIRGFKQKLNE [MTW1]  3.14 ± 0.043
23. VDKSRKVAHTSYKRIYG [PRE8]  3.13 ± 0.093
24. VGVIGPLHSGKTSLMDL [SNU114]  3.13 ± 0.07
25. VIEMKRCFENLQNKSFK [UBP6]  3.13 ± 0.1
26. VITNLFSAIPFVGNDIV [COB]  3.13 ± 0.036
27. VEFCRNINSTDKSIDTS [YML103C/NUP188]  3.12 ± 0.053
28. VLRPFLLRRLKKDVEKE [SNF2]  3.11 ± 0.12
29. VEKVATAVLSTTARAKA [RPN2]  3.1 ± 0.081
30. VDSTFQKVSENFEAVFE [SMC3]  3.09 ± 0.048
31. VKKQKSARGIETRPAQV [FAS2]  3.09 ± 0.082
32. VDVAIPCNNRGKHSIGL [RPS0A]  3.07 ± 0.11
33. VHRITDEEASYKLGKVK [RPS4A]  3.07 ± 0.12
34. VILGDANSSTIRVTNSF [RPN8]  3.06 ± 0.052
35. VQIGAEIILDFLQDKVQ [CSI1]  3.06 ± 0.047
36. VNLDNTAVGKAAVVKTS [RPT5]  3.05 ± 0.039
37. VEDYLSSVTSDSMKYTI [RPC82]  3.04 ± 0.093
38. VKRIQSVPLVIGQFLEP [RPT3]  3 ± 0.094
39. VNLSQEALQYDPQPFLK [SNU114]  3 ± 0.046
40. VQGELKPTVILKLLKEN [FAS1]  2.99 ± 0.28
41. VEEIKLQKEKELHKEGT [SMC2]  2.97 ± 0.096
42. VEFCGYSIPHPSENLLN [RPC19]  2.95 ± 0.074
43. VPISTSQTNNSFLSGVK [SIR4]  2.95 ± 0.057
44. VQPPLDKFPYKKLELPK [SWP82]  2.93 ± 0.055
45. VIANPKGEMKGSAITGP [RPL23A]  2.91 ± 0.23
46. VQARDNSQVFGVARIYA [RPS14B]  2.91 ± 0.059
47. VKDFTSLGFNEVFSRPE [RPO21]  2.9 ± 0.19
48. VDPFTRKEWFDIKAPST [RPS1A]  2.89 ± 0.06
49. VEENRVRYTTSVMPPNE [DLS1]  2.86 ± 0.055
50. VIWSEDNDEKLIIRCRV [RPO21]  2.84 ± 0.19
51. VIKTLTVDVSSPTENGV [RPL22B]  2.83 ± 0.064
52. VLALKVEDFLERRLQTQ [RPS9A]  2.83 ± 0.076
53. VLDIVPGSSITETEVER [SRB4]  2.83 ± 0.12
54. VGVHIADVTHFVKPGTA [DIS3]  2.76 ± 0.063
55. VLVLRGTLEGHNGWVTS [ASC1]  2.76 ± 0.18
56. VFIFPTSNWEIYKPLLF [SRB8]  2.74 ± 0.056
57. VEQYKFRETTHSKRELD [BRR2]  2.73 ± 0.054
58. VGSLVVKSSMGPAFRLY [RPL1A]  2.73 ± 0.055
59. VKAQRPITGASLDLIKE [RPL24A]  2.73 ± 0.05
60. VLVSSVTEANIIKLVEG [RPS12]  2.71 ± 0.072
61. VNEENDSYIALYEKDIV [RET1]  2.68 ± 0.07
62. VDIRVGKKSSSSTKDYL [RET1]  2.65 ± 0.18
63. VPKSIAKTLTYPEVVTP [RPO21]  2.62 ± 0.047
64. VNDFSDITSDQLLQRLN [SMC3]  2.6 ± 0.04
65. VNESRNSDDIIDVDMDA [SRB5]  2.59 ± 0.052
66. VKEMEPKQSDEYLKRVS [SIR3]  2.54 ± 0.076
67. VILQSDLEEAYATQVKT [RPT3]  2.53 ± 0.068
68. VGQLNKVVDQLFEKASV [RPN6]  2.5 ± 0.058
69. VMSSDDENAPVATNANA [PRE10]  2.5 ± 0.26
70. VEKTLLSDVAFYVQDVY [RPO31]  2.49 ± 0.15
71. VDFIKHSLSQAIKWDGS [PRE3]  2.48 ± 0.2
72. VLIFFQMTQIMDIMEDF [SNF2]  2.42 ± 0.091
73. VDESLLSTLPAGKSLVS [QCR2]  2.41 ± 0.13
74. VDNTVPSTTLFNFGGKS [YOR098C/NUP1]  2.38 ± 0.033
75. VFNNGIVVLVPKFGVEG [DIS3]  2.32 ± 0.053
76. VLRLNAIPLLKVLRKFR [NUT1]  2.3 ± 0.038
77. VLFAAYKVEHPFFARFK [RPB11]  2.27 ± 0.1
78. VINIAKAHPNFPIALQW [FAS1]  2.23 ± 0.076
79. VGVSHTNEEVRNMAEEF [CYT1]  2.22 ± 0.043
80. VKVNHNEKRYATASAIA [RPL4A]  2.18 ± 0.067
81. VFDTAITSWYENHNKGK [QCR9]  2.15 ± 0.073
82. VIQQDKYQKALHYLKKF [SRP72]  2.15 ± 0.1
83. VEVLLVNYNSDMIKCFL [NUT1]  2.02 ± 0.13
84. VFDLCWNSLMYALQSVK [RRP43]  1.99 ± 0.051
85. VDKGAIMKNKDFILSLL [YJL039C/NUP192]  1.96 ± 0.069
86. VEDFLERRLQTQVYKLG [RPS9A]  1.93 ± 0.18
87. VPNILSLDMNSMNKELI [NUT1]  1.91 ± 0.075
88. VEELMKKRRGSRIYKTI [SNU114]  1.83 ± 0.053
89. VMEYDVKFYEIFNFDQL [SRB8]  1.74 ± 0.1
90. VFIRHRTPHEIQEANSV [RIP1]  1.69 ± 0.17
91. VGRLASVVAKQLLNGQK [RPL16A]  1.67 ± 0.2
92. VFQDNVYKIYNHVMPLK [SIN4]  1.62 ± 0.049
93. VLSTEEILNIFKHISVK [RPO21]  1.6 ± 0.17
94. VLYHTSGAITFVNETPR [PRP8]  1.53 ± 0.04
95. VNLENPIPIAVLDSYTP [FAS1]  1.42 ± 0.027
96. VNGVPLRRVNARYVIAT [RPL6A]  1.23 ± 0.05
97. VETILSGKARICIVGGY [FAS2]  1.14 ± 0.13
98. VKDKEEDHIFFKYIYEL [YDL116W/NUP84]  1.06 ± 0.076
